Patent US20110319600A1

How the values were obtained:
[1] = molecular target: hemagglutinin (HA) of human influenza B virus, B/Shanghai/261/02 strain (human influenza B virus, B/Shanghai/261/02 strain)
[2] = molecular target: hemagglutinin (HA) of human influenza B virus, B/Mie/1/93 strain (human influenza B virus, B/Mie/1/93 strain)
[3] = molecular target: hemagglutinin (HA) of human influenza B virus, B/Malaysia/2506/04 strain (human influenza B virus, B/Malaysia/2506/04 strain)
[4] = molecular target: hemagglutinin (HA) of human influenza B virus, B/Victoria/2/87 strain (human influenza B virus, B/Victoria/2/87 strain)
[5] = molecular target: hemagglutinin (HA) of human influenza B virus, B/Malaysia/2506/04 strain (human influenza B virus, B/Malaysia/2506/04 strain); assay: cell-based or functional assay

Sequence of hemagglutinin (HA) of human influenza B virus, B/Victoria/2/87 strain (human influenza B virus, B/Victoria/2/87 strain) (P22092 16-585): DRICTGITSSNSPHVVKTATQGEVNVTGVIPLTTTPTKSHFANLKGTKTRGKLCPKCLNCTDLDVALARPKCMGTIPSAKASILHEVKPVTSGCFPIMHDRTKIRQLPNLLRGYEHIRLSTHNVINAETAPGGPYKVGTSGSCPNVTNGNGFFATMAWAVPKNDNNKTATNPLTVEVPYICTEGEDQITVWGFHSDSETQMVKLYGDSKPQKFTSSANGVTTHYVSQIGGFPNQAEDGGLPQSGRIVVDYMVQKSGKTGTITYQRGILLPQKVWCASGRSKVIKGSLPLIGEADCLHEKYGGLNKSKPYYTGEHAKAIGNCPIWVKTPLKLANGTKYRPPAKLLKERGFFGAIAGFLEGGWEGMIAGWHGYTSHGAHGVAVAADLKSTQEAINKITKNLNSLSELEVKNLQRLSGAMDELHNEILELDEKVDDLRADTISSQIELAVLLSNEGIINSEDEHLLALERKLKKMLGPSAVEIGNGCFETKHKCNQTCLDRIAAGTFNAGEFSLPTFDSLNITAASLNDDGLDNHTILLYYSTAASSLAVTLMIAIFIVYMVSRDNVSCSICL

B1: B-3 monoclonal antibody (antibody, V domains shown)
VH: QVKLVQSGGGAVQPGRSLRLSCEASGFDFTVYDIHWVRQAPGKGLEWVASIWHNGGKAYYADSVKGRFTVSRDNPQKTVYLQMSGLRPEDTATYYCAREFPFMGIYDYGMDAWGQGTTVTVAS
VL: QSVLAQPPSASGTPGQRVIISCSGTSSNIGGNSVNWYQHPPGAAPRLLIYTTDQRPSGVPDRFSGSKSGTSASLAISGLQSEDEADYYCEVWDDSLTRPVFGGGTKLTVL
staining activity [1]: 32 | staining activity [2]: 32 | staining activity [3]: 8 | staining activity [4]: 32 | HI activity [5]: < 2 | Neutralization activity (% inhibition) [5]: 31.7 % inhibition

B2: E-2 monoclonal antibody (antibody, V domains shown)
VH: QVQLQESGPGLVKPLQTLSLTCVVSGDSISRGGYYWSWVRQPPERGLEWIGDIYHSGSTNYNPALKSRTTISVETSKNQFSLQLNSVTAADTAVYYCAREPPPDYSDYKVGKGYFDYWGQGALVTVSS
VL: EIVLAQSPATLSLSPGERATLSCRASETVDTYLAWYQQKPGQAPRLLINDASKRATGIPARFSGSGSGTDFTLTISGLEPEDFAVYWCQQHSNWPPTFGQGSRLEIK
staining activity [1]: > 128 | staining activity [2]: 128 | staining activity [3]: 128 | staining activity [4]: > 128 | HI activity [5]: < 2 | Neutralization activity (% inhibition) [5]: 37.8 % inhibition
